{"source": "the Immune Epitope Database (IEDB)", "key": {"[1]": {"molecular_target": "HLA-B*15:01", "experiment": "IEDB peptide-MHC binding, purified MHC/competitive/radioactivity; filed as Kd, often an IC50 or EC50 that approximates it; ≥ and ≤ were set here for values at or beyond the usual limits of such assays"}, "[2]": {"molecular_target": "HLA-A*30:02", "experiment": "IEDB peptide-MHC binding, purified MHC/competitive/radioactivity; filed as Kd, often an IC50 or EC50 that approximates it; ≥ and ≤ were set here for values at or beyond the usual limits of such assays"}, "[3]": {"molecular_target": "HLA-A*01:01", "experiment": "IEDB peptide-MHC binding, purified MHC/competitive/radioactivity; filed as Kd, often an IC50 or EC50 that approximates it; ≥ and ≤ were set here for values at or beyond the usual limits of such assays", "conditions": "source organism: Dengue virus 4 Philippines/H241/1956"}, "[4]": {"molecular_target": "HLA-A*24:02", "experiment": "IEDB peptide-MHC binding, purified MHC/competitive/fluorescence; ≥ and ≤ were set here for values at or beyond the usual limits of such assays", "conditions": "source organism: Zaire ebolavirus"}, "[5]": {"molecular_target": "HLA-A*01:01", "experiment": "IEDB peptide-MHC binding, purified MHC/direct/fluorescence; filed as Kd, often an IC50 or EC50 that approximates it; ≥ and ≤ were set here for values at or beyond the usual limits of such assays", "conditions": "source organism: Influenza A virus (A/Moscow/343/2003(H3N2))"}, "[6]": {"molecular_target": "HLA-A*30:01", "experiment": "IEDB peptide-MHC binding, purified MHC/competitive/radioactivity; filed as Kd, often an IC50 or EC50 that approximates it; ≥ and ≤ were set here for values at or beyond the usual limits of such assays"}, "[7]": {"molecular_target": "HLA-A*02:01", "experiment": "IEDB peptide-MHC binding, purified MHC/competitive/fluorescence; ≥ and ≤ were set here for values at or beyond the usual limits of such assays"}, "[8]": {"molecular_target": "HLA-B*40:01", "experiment": "IEDB peptide-MHC binding, purified MHC/competitive/radioactivity; filed as Kd, often an IC50 or EC50 that approximates it; ≥ and ≤ were set here for values at or beyond the usual limits of such assays", "conditions": "source organism: Dengue virus 4 Philippines/H241/1956"}, "[9]": {"molecular_target": "HLA-A*33:01", "experiment": "IEDB peptide-MHC binding, purified MHC/competitive/radioactivity; filed as Kd, often an IC50 or EC50 that approximates it; ≥ and ≤ were set here for values at or beyond the usual limits of such assays", "conditions": "source organism: Vaccinia virus WR"}, "[10]": {"molecular_target": "HLA-A*31:01", "experiment": "IEDB peptide-MHC binding, purified MHC/competitive/radioactivity; filed as Kd, often an IC50 or EC50 that approximates it; ≥ and ≤ were set here for values at or beyond the usual limits of such assays"}, "[11]": {"molecular_target": "HLA-A*03:01", "experiment": "IEDB peptide-MHC binding, purified MHC/competitive/radioactivity; filed as Kd, often an IC50 or EC50 that approximates it; ≥ and ≤ were set here for values at or beyond the usual limits of such assays", "conditions": "source organism: Vaccinia virus WR"}, "[12]": {"molecular_target": "HLA-A*68:01", "experiment": "IEDB peptide-MHC binding, purified MHC/competitive/radioactivity; filed as Kd, often an IC50 or EC50 that approximates it; ≥ and ≤ were set here for values at or beyond the usual limits of such assays", "conditions": "source organism: Vaccinia virus WR"}, "[13]": {"molecular_target": "HLA-A*11:01", "experiment": "IEDB peptide-MHC binding, purified MHC/competitive/radioactivity; filed as Kd, often an IC50 or EC50 that approximates it; ≥ and ≤ were set here for values at or beyond the usual limits of such assays", "conditions": "source organism: Vaccinia virus WR"}, "[14]": {"molecular_target": "HLA-A*31:01", "experiment": "IEDB peptide-MHC binding, purified MHC/direct/fluorescence; filed as Kd, often an IC50 or EC50 that approximates it; ≥ and ≤ were set here for values at or beyond the usual limits of such assays", "conditions": "source organism: Rickettsia prowazekii"}, "[15]": {"molecular_target": "HLA-A*03:01", "experiment": "IEDB peptide-MHC binding, purified MHC/direct/fluorescence; filed as Kd, often an IC50 or EC50 that approximates it; ≥ and ≤ were set here for values at or beyond the usual limits of such assays", "conditions": "source organism: Rickettsia prowazekii"}, "[16]": {"molecular_target": "HLA-A*11:01", "experiment": "IEDB peptide-MHC binding, purified MHC/direct/fluorescence; filed as Kd, often an IC50 or EC50 that approximates it; ≥ and ≤ were set here for values at or beyond the usual limits of such assays", "conditions": "source organism: Homo sapiens"}, "[17]": {"molecular_target": "HLA-B*27:05", "experiment": "IEDB peptide-MHC binding, purified MHC/direct/fluorescence; filed as Kd, often an IC50 or EC50 that approximates it; ≥ and ≤ were set here for values at or beyond the usual limits of such assays", "conditions": "source organism: Homo sapiens"}, "[18]": {"molecular_target": "HLA-A*02:03", "experiment": "IEDB peptide-MHC binding, purified MHC/competitive/radioactivity; filed as Kd, often an IC50 or EC50 that approximates it; ≥ and ≤ were set here for values at or beyond the usual limits of such assays", "conditions": "source organism: Dengue virus 3 Martinique/1243/1999"}, "[19]": {"molecular_target": "HLA-A*02:01", "experiment": "IEDB peptide-MHC binding, purified MHC/competitive/radioactivity; filed as Kd, often an IC50 or EC50 that approximates it; ≥ and ≤ were set here for values at or beyond the usual limits of such assays", "conditions": "source organism: dengue virus type 3"}, "[20]": {"molecular_target": "HLA-B*08:01", "experiment": "IEDB peptide-MHC binding, purified MHC/competitive/radioactivity; filed as Kd, often an IC50 or EC50 that approximates it; ≥ and ≤ were set here for values at or beyond the usual limits of such assays"}, "[21]": {"molecular_target": "HLA-A*02:01", "experiment": "IEDB peptide-MHC binding, purified MHC/competitive/fluorescence; filed as Kd, often an IC50 or EC50 that approximates it; ≥ and ≤ were set here for values at or beyond the usual limits of such assays", "conditions": "source organism: Schaalia radingae"}, "[22]": {"conditions": "source organism: Dengue virus 2 Jamaica/1409/1983"}, "[23]": {"conditions": "source organism: Dengue virus 4 Philippines/H241/1956"}, "[24]": {"conditions": "source organism: Vaccinia virus WR"}}}
{"sequence": "ALHQVFGAIY", "values": [{"measurement": "Kd", "setting": "[1]; [22]", "result": 4.38, "unit": "nM"}, {"measurement": "Kd", "setting": "[2]; [22]", "result": 71.8, "unit": "nM"}]}
{"sequence": "KLHSGVDVFY", "values": [{"measurement": "Kd", "setting": "[1]; [23]", "result": 2.76, "unit": "nM"}, {"measurement": "Kd", "setting": "[3]", "result": 2870, "unit": "nM"}, {"measurement": "Kd", "setting": "[2]; [23]", "result": 12.1, "unit": "nM"}]}
{"sequence": "ESRFTPQFL", "values": [{"measurement": "IC50", "setting": "[4]", "result": 22400, "unit": "nM"}]}
{"sequence": "DTKIDLWSY", "values": [{"measurement": "Kd", "setting": "[5]", "result": "≥ 20000", "unit": "nM"}]}
{"sequence": "HTKIDSMFL", "values": [{"measurement": "Kd", "setting": "[6]; [24]", "result": 1.46, "unit": "nM"}, {"measurement": "IC50", "setting": "[7]; source organism: Variola virus", "result": 53700, "unit": "nM"}]}
{"sequence": "KEEYVDYMPV", "values": [{"measurement": "Kd", "setting": "[8]", "result": 68.7, "unit": "nM"}]}
{"sequence": "MQKFTILEY", "values": [{"measurement": "Kd", "setting": "[9]", "result": "≥ 54500", "unit": "nM"}, {"measurement": "Kd", "setting": "[10]; [24]", "result": 174, "unit": "nM"}, {"measurement": "Kd", "setting": "[11]", "result": 470, "unit": "nM"}, {"measurement": "Kd", "setting": "[12]", "result": 10800, "unit": "nM"}, {"measurement": "Kd", "setting": "[13]", "result": 39.8, "unit": "nM"}, {"measurement": "Kd", "setting": "[1]; [24]", "result": 10.1, "unit": "nM"}]}
{"sequence": "CRSCTMPPLR", "values": [{"measurement": "Kd", "setting": "[6]; [23]", "result": 1530, "unit": "nM"}]}
{"sequence": "KWLKIITPK", "values": [{"measurement": "Kd", "setting": "[14]", "result": 217, "unit": "nM"}, {"measurement": "Kd", "setting": "[15]", "result": "≥ 20000", "unit": "nM"}]}
{"sequence": "GRNSFEVRV", "values": [{"measurement": "Kd", "setting": "[16]", "result": "≥ 37700", "unit": "nM"}, {"measurement": "Kd", "setting": "[17]", "result": 1060, "unit": "nM"}]}
{"sequence": "GLFGKGSLV", "values": [{"measurement": "Kd", "setting": "[18]", "result": 2.92, "unit": "nM"}, {"measurement": "Kd", "setting": "[19]", "result": 2.9, "unit": "nM"}]}
{"sequence": "SNKRHRPIG", "values": [{"measurement": "Kd", "setting": "[20]; [24]", "result": 33.5, "unit": "nM"}]}
{"sequence": "QLAYVVIGIL", "values": [{"measurement": "Kd", "setting": "[20]; source organism: Dengue virus 3 Martinique/1243/1999", "result": "≥ 10000", "unit": "nM"}]}
{"sequence": "IWKVNPEID", "values": [{"measurement": "IC50", "setting": "[4]", "result": 62100, "unit": "nM"}]}
{"sequence": "KLVVVAVGV", "values": [{"measurement": "Kd", "setting": "[21]", "result": 10, "unit": "nM"}]}
{"sequence": "SLRYSSKVF", "values": [{"measurement": "Kd", "setting": "[20]; [24]", "result": 928, "unit": "nM"}]}
{"sequence": "RIRQQLPLY", "values": [{"measurement": "Kd", "setting": "[9]", "result": "≥ 77700", "unit": "nM"}, {"measurement": "Kd", "setting": "[10]; [24]", "result": 773, "unit": "nM"}, {"measurement": "Kd", "setting": "[11]", "result": 21.5, "unit": "nM"}, {"measurement": "Kd", "setting": "[12]", "result": 1190, "unit": "nM"}, {"measurement": "Kd", "setting": "[13]", "result": 553, "unit": "nM"}, {"measurement": "Kd", "setting": "[6]; [24]", "result": 12.8, "unit": "nM"}]}
{"sequence": "TGILQLPRD", "values": [{"measurement": "IC50", "setting": "[4]", "result": "≥ 506000", "unit": "nM"}, {"measurement": "IC50", "setting": "[7]; source organism: Zaire ebolavirus", "result": "≥ 584000", "unit": "nM"}]}
{"sequence": "KSKAINVLR", "values": [{"measurement": "Kd", "setting": "[10]; [22]", "result": 1.1, "unit": "nM"}, {"measurement": "Kd", "setting": "[6]; [22]", "result": 103, "unit": "nM"}]}
